These are literature values, as cited in patent publication US20200247855A1, “THERAPY AND DIAGNOSTICS” (OXFORD UNIVERSITY INNOVATION LIMITED, priority 2017, published 2020).

The Kd is a measure of binding affinity in units of concentration.

The target in series [1] is T1, CCL8_HUMAN (Homo sapiens, UniProt P80075).
T1 sequence (P80075 24-99): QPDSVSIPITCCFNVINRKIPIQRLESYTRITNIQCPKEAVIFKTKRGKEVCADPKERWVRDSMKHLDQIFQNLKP
As to conditions: Eaton, J. R. O. et al., JBC [2018], cited from earlier work.

Series [2] addresses T2, CCL23_HUMAN (Homo sapiens, UniProt P55773).
T2 sequence (P55773 22-120): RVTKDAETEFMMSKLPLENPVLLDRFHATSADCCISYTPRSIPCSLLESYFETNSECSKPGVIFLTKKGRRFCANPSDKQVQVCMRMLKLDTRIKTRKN
To be noted: read-out: Kd, CCL23_HUMAN, previously described evasins; data obtained from publications [20-22,32]; cited from earlier work.

In series [3] the target is T3, CCL3_HUMAN (Homo sapiens, UniProt P10147).
T3 sequence (P10147 24-92): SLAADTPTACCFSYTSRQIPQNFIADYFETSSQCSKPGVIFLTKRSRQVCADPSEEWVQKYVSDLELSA
To be noted: read-out: Kd, CCL3_HUMAN, previously described evasins; data obtained from publications [20-22,32]; cited from earlier work.

The target of series [4] is T4, CCL16_HUMAN (Homo sapiens, UniProt O15467).
T4 sequence (O15467 24-120): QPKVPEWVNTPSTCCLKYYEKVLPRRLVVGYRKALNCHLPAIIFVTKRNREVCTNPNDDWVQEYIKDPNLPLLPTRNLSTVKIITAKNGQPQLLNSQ
As to conditions: read-out: Kd, CCL16_HUMAN, previously described evasins; data obtained from publications [20-22,32]; cited from earlier work.

Series [5] has as its target T5, CCL5_HUMAN (Homo sapiens, UniProt P13501).
T5 sequence (P13501 24-91): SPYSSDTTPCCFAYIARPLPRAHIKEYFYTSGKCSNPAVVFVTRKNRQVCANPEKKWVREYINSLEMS
As to conditions: read-out: Kd, CCL5_HUMAN, previously described evasins; data obtained from publications [20-22,32]; cited from earlier work.

In series [6] the target is T6, CCL4_HUMAN (Homo sapiens, UniProt P13236).
T6 sequence (P13236 24-92): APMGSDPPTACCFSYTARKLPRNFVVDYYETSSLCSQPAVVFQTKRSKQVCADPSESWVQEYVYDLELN
To be noted: data obtained from publications [20-22,32]; cited from earlier work.

Series [7] addresses CCL26_HUMAN (Homo sapiens, UniProt Q9Y258). To be noted: read-out: Kd, CCL26_HUMAN, previously described evasins; data obtained from publications [20-22,32]; cited from earlier work.
For series [8], the target named is T7, CCL17_HUMAN (Homo sapiens, UniProt Q92583).
T7 sequence (Q92583 24-94): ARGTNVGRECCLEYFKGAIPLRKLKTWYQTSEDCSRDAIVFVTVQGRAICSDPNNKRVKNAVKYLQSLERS
As to conditions: read-out: Kd, CCL17_HUMAN, previously described evasins; data obtained from publications [20-22,32]; cited from earlier work.

CCL26_HUMAN, sequence (Q9Y258 24-94): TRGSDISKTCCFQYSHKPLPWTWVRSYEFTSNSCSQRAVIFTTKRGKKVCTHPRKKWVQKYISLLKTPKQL

B1: P672_RHIPU: tick CKBP, Rhipicephalus pulchellus (protein, listed as Rhipicephalus pulchellus)
chain: VCEVSEQEGVGEDNATEDEDYEDFFKPVTCYFANSTVGPLRPPNCTVVCTNNTAWWNDTKSDGGHCYSEYRPEKRTHSREIYNCTIGVCGNGTCIANHTYADCW
In the case of B1, the “Residency time (RT) of P672:CCL8 interaction” value in series [1] is given as 27 min. The dissociation constant Kd in series [1] (read-out: Kd of P672:CCL8 interaction) is 8.5 nM.

B2: EVASIN4: previously described tick CKBP evasin 4, from Rhipicephalus sanguineus (protein, listed as Rhipicephalus sanguineus)
chain: EVPQMTSSSAPDLEEEDDYTAYAPLTCYFTNSTLGLLAPPNCSVLCNSTTTWFNETSPNNASCLLTVDFLTQDAILQENQPYNCSVGHCDNGTCAGPPRHAQCW
In the case of B2, the Kd in series [2] was 4.43 nM; in series [3], 0.06 nM; in series [4], 0.26 nM; in series [5], 0.09 nM; in series [7], 0.88 nM; in series [8], 0.61 nM. In series [6], the “Kd, CCL4_HUMAN, previously described evasins” value is reported as “No Binding”.
